Experiment [1] deals with T1, mouse Notch1 (EGF6-13, residues 221-526), biotinylated (mouse, UniProt Q01705 221-526, Biotinylated in vitro by BirA at the C-terminal BAP-tag (tag not in the letters).).
T1 construct: Immobilised on a streptavidin chip for SPR; also called mNotch1 EGF6-13; mNotch1 (6-13)
T1 sequence: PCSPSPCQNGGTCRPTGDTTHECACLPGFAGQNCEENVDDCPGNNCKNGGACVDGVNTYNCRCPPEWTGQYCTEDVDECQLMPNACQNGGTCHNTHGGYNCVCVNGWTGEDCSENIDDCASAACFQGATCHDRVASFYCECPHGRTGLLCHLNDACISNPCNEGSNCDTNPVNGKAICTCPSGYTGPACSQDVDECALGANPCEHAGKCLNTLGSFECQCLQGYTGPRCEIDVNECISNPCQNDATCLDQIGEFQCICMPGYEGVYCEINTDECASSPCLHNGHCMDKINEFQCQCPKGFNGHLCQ
Description: SPR (Biacore T200), biotinylated mNotch1 EGF6-13 on streptavidin chip, DLL4 protein (N-EGF5) in flow, 1:1 model. How it is done: The binding affinity was measured between each DLL4 variant and the EGF6-13 region of murine Notch1 (mNotch1 EGF6-13) to test for cross-species reactivity (FIGS. 2B, 10, 11A). […] Lastly, the binding of Delta^MAX to full-length, cell surface-expressed Notch1 was assessed.
Equilibrium dissociation constants were determined by surface plasmon resonance using a Biacore T200 instrument (GE Healthcare). Approximately 100 resonance units (RU) of biotinylated Notch extracellular fragments (Notch1 (EGF6-13), Notch2 (EGF6-13), Notch3 (EGF5-12), Notch4 (7-12), and mouse Notch1 (EGF6-13)) were immobilized on individual flow cells at 5 μl/min using a streptavidin-coated sensor chip (Series S Sensor chip SA, GE Healthcare). Three-fold serial dilutions of recombinant DLL4 proteins (N-EGF5) starting at 50 μM (WT DLL4), 18 μM (DLL4.v2), and 6 μM (DLL4.v1 and Delta^MAX) were flowed over the chip at 25° C. in SPR buffer (20 mM HEPES pH 7.4, 150 mM NaCl, 1 mM calcium chloride, 0.1% BSA supplemented with 0.005% surfactant P20). Association (“on-rate”) and dissociation (“off-rate”) phases were performed at 10 μl/min for 120 seconds and 300 seconds, respectively. […] Data collection rate was performed at 10 Hz, and curves were reference-subtracted from a flow cell containing 100 RU of a negative control non-related protein (biotinylated mouse RNF43 PA domain). […]
On the technique in general: SPR reads the build-up and loss of mass on a sensor chip optically.

For experiment [2], the target named is T2, hNotch2 (EGF6-13, residues 221-530), biotinylated (human, UniProt Q04721 221-530, Biotinylated in vitro by BirA at the C-terminal BAP-tag (tag not in the letters).).
T2 construct: Immobilised on a streptavidin chip for SPR
T2 sequence: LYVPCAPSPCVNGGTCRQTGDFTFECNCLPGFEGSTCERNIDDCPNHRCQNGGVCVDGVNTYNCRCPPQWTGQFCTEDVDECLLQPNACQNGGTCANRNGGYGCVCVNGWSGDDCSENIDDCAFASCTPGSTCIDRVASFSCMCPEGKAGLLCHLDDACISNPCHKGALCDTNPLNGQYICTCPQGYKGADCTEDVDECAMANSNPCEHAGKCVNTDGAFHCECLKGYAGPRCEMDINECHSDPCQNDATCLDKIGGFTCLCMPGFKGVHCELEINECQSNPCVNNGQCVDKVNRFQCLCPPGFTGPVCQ
Description: SPR (Biacore T200), biotinylated Notch fragment on streptavidin chip, DLL4 protein (N-EGF5) in flow, 1:1 model. As to the method: The rapid dissociation of WT DLL4 precluded kinetic fitting of the binding data.
Equilibrium dissociation constants were determined by surface plasmon resonance using a Biacore T200 instrument (GE Healthcare). Approximately 100 resonance units (RU) of biotinylated Notch extracellular fragments (Notch1 (EGF6-13), Notch2 (EGF6-13), Notch3 (EGF5-12), Notch4 (7-12), and mouse Notch1 (EGF6-13)) were immobilized on individual flow cells at 5 μl/min using a streptavidin-coated sensor chip (Series S Sensor chip SA, GE Healthcare). Three-fold serial dilutions of recombinant DLL4 proteins (N-EGF5) starting at 50 μM (WT DLL4), 18 μM (DLL4.v2), and 6 μM (DLL4.v1 and Delta^MAX) were flowed over the chip at 25° C. in SPR buffer (20 mM HEPES pH 7.4, 150 mM NaCl, 1 mM calcium chloride, 0.1% BSA supplemented with 0.005% surfactant P20). Association (“on-rate”) and dissociation (“off-rate”) phases were performed at 10 μl/min for 120 seconds and 300 seconds, respectively. […] Data collection rate was performed at 10 Hz, and curves were reference-subtracted from a flow cell containing 100 RU of a negative control non-related protein (biotinylated mouse RNF43 PA domain). The maximum RU for each experiment was normalized to a value of 100% and plotted as a function of concentration using Prism 9 software (GraphPad). Steady-state binding and kinetic curves were fitted using the Biacore T200 evaluation software to a 1:1 Langmuir model to determine the KD values.

B1: Delta^MAX (N-EGF5), non-biotinylated (ligand)
chain: SSVFQLQLQEFINERGVLASGRPCEPGCRTFFRVCLKHFQAVVSPGPCTFGTVSTPVLGTNSFAVRDDSSGGGRNPLQLPLNFTWPGTFSLIIEAWHAPGDDLRPEALPPDALISKFAIQGSLAVGQNWLLDEQTSTLTRLRYSYRVICSDNYYGDNCSRLCKKRNDYFGHYVCQPDGNPSCLPGWTGEYCQQPICLSGCHEQNGYCSKPAECLCRPGWQGRLCNECIPHPGCRHGTCSTPWQCLCDEGWGGLYCDQDLNYCTHHSPCKNGATCRNSGPRSYTCTCRPGYTGVDCELELSECDSNPCRNGGSCKDQEDGYHCLCPPGYYGLHCEHSTLSCADSPCFNGGSCRERNQGANYACECPPNFTGSNCEHHHHHHHH
notes: also called DLL4^MAX; soluble Delta^MAX
In general, Kd refers to the free concentration of one partner at which half of the binding sites on the other are occupied at equilibrium, for simple one-to-one binding. Higher therefore signals weaker binding. Take B1: the results for the Kd in experiment [1] and in experiment [2] were 25 nM and 54 nM, respectively.

Values taken from patent US20260055369A1 (H LEE MOFFITT CANCER CENTER AND RESEARCH INSTITUTE, published 2026).
